“Also recorded” adds a separate entry of the source.
Tests used:
[1] = Tissue pharmacokinetics of released TQ and its metabolites in liver, plasma and urine (LC-MS/MS); format: in vivo, BALB/c mice; conditions: mouse, in vivo
P. berghei = P. berghei luciferase and blood parasitemia model of causal prophylaxis; format: in vivo; conditions: for Mice survived: 31 days, n = 5
Method: Efficacy studies in the P. berghei mouse model of causal prophylaxis were conducted at the Walter Reed Army Institute of Research, Experimental Therapeutics Branch as previously described ([46]).
Luciferase-expressing P. berghei ANKA sporozoites were obtained from laboratory-reared female Anopheles stephens mosquitoes as previously described ([46]). Sporozoites were recovered by the method of Li et al. ([62]) and quantitated using a hemocytometer. Sporozoites isolated from the same batch of mosquitoes were inoculated into mice on the same day to control biological variability in sporozoite preparations. Each animal was inoculated IV in the tail vein with approximately 10,000 sporozoites suspended in 0.1-ml volume on day 0.
Age-matched, 40 young adult (7-week-old) female C57BL/6 albino mice were purchased from Charles River Laboratories (Frederick, MD). On arrival, animals were acclimated for 7 days in quarantine. Mice were housed and maintained at a temperature range of 64° to 79°F, 34 to 68% relative humidity, and a 12-hour light/dark cycle. Food and water were provided ad libitum. Animals were fed a standard rodent maintenance diet. All animal use, care, and handling was conducted under an IACUC-approved animal use protocol in an Association for Assessment and Accreditation for Laboratory Animal Care International (AAALACi)–accredited facility with a Public Health Services Animal Welfare Assurance and in compliance with the Animal Welfare Act and other federal statutes and regulations relating to laboratory animals.
TQ was dissolved at a stock concentration of 1 mg/ml in 25% hydroxy-β-cyclodextrin acidified to pH 5 with acetic acid and diluted in DPBS for final dosing solutions. Polymers for parenteral administration were prepared in DPBS at the final dosing concentrations. All drug concentrations were calculated per the free base molecular weights of TQ. TQ parent compounds were administered intragastrically via an intragastric feeder tube. Vehicle groups (0.1 ml of DPBS) and polymer groups were administered SC in the right flank. Free TQ, vehicle, and polymers were given as a single dose on day −1. In this model, the pSVCTQ doses studied were 5.0, 7.5, or 10 mg/kg TQ equivalent.
Whole-body IVIS imaging of bioluminescence activity from luciferase-expressing P. berghei–infected mice was performed using a PerkinElmer IVIS Spectrum. Mice were evaluated at 24, 48, and 72 hours after sporozoite inoculation to determine liver- and blood-stage malaria infection. Mice received luciferin (150 mg/kg, Gold Biotechnology, St. Louis, MO) intraperitoneally in a maximal volume of 150 μl. Three minutes after luciferin administration, the mice were anesthetized with inhaled isoflurane and positioned ventral side up in the IVIS Spectrum on a 37°C platform. The mice continued to receive isoflurane through nose cone delivery. The camera exposure times used were 1 or 5 min for the 24-, 48-, and 72-hour time points with f-stop = 1, and the large binning setting was chosen. Quantitative analysis of bioluminescence emitted from whole bodies or […] (ROI) were determined by measuring the luminescence signal intensity in photons per second using the ROI settings of the Living Image 3.0 software. The ROI, expressed in total flux of photons, was set to measure the abdominal area at the location of the liver from whole-body imaging ([62]). The data were generally found to fit a normal distribution. Means and SDs of photon measurement were calculated.
On days 5 to 31 after infection, mice were analyzed for blood-stage infections by quantitation of malaria parasites in erythrocytes by flow cytometry. Blood (3 μl) from the mouse tail was collected directly into 0.3 ml of 1% heparinized isotonic buffer (PBS saline). After addition of 1 ml of 0.04% of glutaraldehyde for fixation, the samples were incubated at 4°C for 60 min. Cells were centrifuged at 450g for 5 min. […]

Substance: p(GalNAc-MA-co-SVCTQ-MA) [pSVCTQ]
- AUC, liver ([1]; iv, 25 mg/kg): 2550 μg/g liver*hour
- AUC, plasma ([1]; iv, 25 mg/kg): 15.53 μg/ml plasma* hour
- Cmax, liver ([1]; iv, 25 mg/kg): 57 μg/g liver
- Cmax, plasma ([1]; iv, 25 mg/kg): 0.20 μg/ml plasma
- Liver:plasma AUC ratio ([1]; iv, 25 mg/kg): 164
- Tmax, liver ([1]; iv, 25 mg/kg): 8 h
- Tmax, plasma ([1]; iv, 25 mg/kg): 2 h
- OQTQ metabolite in urine ([1]; sc): high level
- Reduction of the Cmax of TQ in blood ([1]; sc): over 75%
- Reduction of the blood AUC over 14 days ([1]; sc): more than 50%
- AUC, liver ([1]; sc, 10 mg/kg): 2422 μg/g liver*hour
- AUC, plasma ([1]; sc, 10 mg/kg): 9.617 μg/ml plasma* hour
- CTQ metabolite in plasma ([1]; sc, 10 mg/kg): absence
- Cmax, liver ([1]; sc, 10 mg/kg): 25 μg/g liver
- Cmax, plasma ([1]; sc, 10 mg/kg): 0.10 μg/ml plasma
- Liver:plasma AUC ratio ([1]; sc, 10 mg/kg): 252
- OQTQ metabolite in plasma ([1]; sc, 10 mg/kg): low
- Tmax, liver ([1]; sc, 10 mg/kg): 8 h
- Tmax, plasma ([1]; sc, 10 mg/kg): 24 h
- Mice survived (P. berghei; 5 mg/kg SC, single dose day −1): 2/5
- Blood parasitemia suppression (P. berghei; 5 mg/kg TQ equivalent SC, single dose day −1): partial suppression of parasitemia
- Mice survived (P. berghei; 7.5 mg/kg SC, single dose day −1): 4/5
- Mice survived (P. berghei; 10 mg/kg SC, single dose day −1): All mice survived
- Mice survived (P. berghei; 10 mg/kg SC, single dose day −1, listed as SVCTQ polymer): 5/5
- Causal prophylaxis (complete parasite suppression) (P. berghei; 10 mg/kg TQ equivalent SC, single dose day −1): 100%
- IVIS signal during days 1 to 3 (P. berghei; 10 mg/kg single dose day −1, pSVCTQ SC, TQ oral): completely suppressed
- Activity compared to oral TQ (based on the TQ equivalent dose) (P. berghei; P. berghei prophylactic model, single dose day −1): approximately twofold; also recorded: approximately twice
